According to patent publication US20140228540A1, “POLYPEPTIDES THAT BIND TISSUE INHIBITOR OF METALLOPROTEINASE TYPE THREE (TIMP-3), COMPOSITIONS AND METHODS” (Amgen Inc., priority 2009, published 2014):

Columns and labels:
[1] = system: rat medial meniscal tear model of osteoarthritis; settings: intra-articular injection; cited from earlier work
[2] = system: cartilage-explants; settings: addition of the protein to explants; cited from earlier work
[3] = target: MMP-13 (Homo sapiens, UniProt P45452); assay: TIMP-3 inhibition of MMP-13 (TIMP-3 alone); assay type: biochemical; settings: TIMP-3 at 0.25 nM, 1.5 nM MMP-13, absence of any antibody
Source text: This Example described MMP-13 Inhibition Assays useful for measuring the effect(s) of TIMP-3 binding proteins (also referred to as test molecules, including LRP-1 peptides and antibodies to TIMP-3) on the ability of TIMP-3 to inhibit MMP-13. First, a titration of TIMP-3 inhibition of MMP-13 is run to empirically determine the IC50 of TIMP-3. […] Briefly, test molecules are titrated in assay buffer and added to black polystyrene 96 or 384 well assay plate (Griener Bio-One, Germany). […] Then recombinant TIMP-3 is diluted in assay buffer (20 mM Tris, 10 mM CaCl2, 10 uM ZnCl2, 0.01% Brij 35 (Calbiochem/EMD, San Diego, Calif.), pH 7.5) to a previously determined concentration (for example, TIMP-3's IC70 with 3 nM being a typical concentration), added to the test molecules and rotated for 10 minutes at room temperature. […]
None of the 22 antibodies evaluated adversely affected the ability of TIMP-3 to inhibit MMP-13, nor did they have an effect upon MMP-13 itself. In the TIMP-3 accumulation assay, the antibodies were evaluated for reproducible, titratable increase in the accumulation of TIMP-3 in supernatant fluid at levels of at least about 1.5 times higher than that observed with a negative control antibody. […]

inhibition of MMP-13 activity [3]: 54%
B1: TIMP-3: tissue inhibitor of metalloproteinase 3, recombinant (protein, UniProt P35625 24-211, looked up)
Metalloproteinase inhibitor 3: CTCSPSHPQDAFCNSDIVIRAKVVGKKLVKEGPFGTLVYTIKQMKMYRGFTKMPHVQYIHTEASESLCGLKLEVNKYQYLLTGRVYDGKMYTGLCNFVERWDQLTLSQRKGLNYRYHLGCNCKIKSCYYLPCFVTSKNECLWTDMLSNFGYPGYQSKHYACIRQKGGYCSWYRGWAPPDKSIINATDP
cartilage damage [1]: reduces cartilage damage | cytokine-induced degradation of cartilage-explants [2]: prevents cytokine-induced degradation
